# In patent US20140249076A1 (AstraZeneca / MedImmune, published 2014):
# Numbered stars: 1 amine (or outer) side, 2 acyl side, 3 side chain; on linkers, the order of the positions; unused ones are H or OH. Side chains are listed from the residue outwards. Ends that are not written are not given here. γGlu = O=C(O)[C@H](CCC(=O)[*:2])N[*:1]
# B1: Cmpd 195 (Kε-(γ-Glu(Nα-C16-Chain))-Cmpd 17) (peptide)
# peptide: K([γGlu-C16‑Chain])KCNTATCALQRLAQELHRLQTYPRTNVGSNTY-NH2
# modifications: ends and bridges not checked
# notes: The description is read as an extra acylated Lys placed before the N-terminus of Cmpd 17
# B2: Cmpd 17 (peptide)
# peptide: KCNTATCALQRLAQELHRLQTYPRTNVGSNTY-NH2
# modifications: ends and bridges not checked
# notes: Parent peptide of the fatty acid acylated compounds
# Molecular target: T1, amylin receptor (RNA membranes)
# T1 construct: Membrane preparation
# Assay: displacement of 125I-rat amylin from RNA membranes
# Excerpt: Dried glass fiber plates were combined with scintillant and counted on a multi-well Perkin Elmer scintillation counter, as well known in the art.
row,Binder,IC50
1,"K([γGlu-C16‑Chain])CNTATCALQRLAQELHRLQTYPRTNVGSNTY-NH2 (ends and bridges not checked, Lys 1 is already present in Cmpd 17) [Cmpd 192 ([K^1ε-(γ-Glu(Nα-C16-Chain))]-Cmpd 17)]",518 pM
2,B1,137 pM
3,B2,28 pM

# Molecular target: T2, CGRP receptor (SK-N-MC cell membranes) (UniProt Q16602 23-461; O60894 27-148)
# T2 construct: whole, on cells
# T2 sequence (Q16602 23-461, chain 1 of 2): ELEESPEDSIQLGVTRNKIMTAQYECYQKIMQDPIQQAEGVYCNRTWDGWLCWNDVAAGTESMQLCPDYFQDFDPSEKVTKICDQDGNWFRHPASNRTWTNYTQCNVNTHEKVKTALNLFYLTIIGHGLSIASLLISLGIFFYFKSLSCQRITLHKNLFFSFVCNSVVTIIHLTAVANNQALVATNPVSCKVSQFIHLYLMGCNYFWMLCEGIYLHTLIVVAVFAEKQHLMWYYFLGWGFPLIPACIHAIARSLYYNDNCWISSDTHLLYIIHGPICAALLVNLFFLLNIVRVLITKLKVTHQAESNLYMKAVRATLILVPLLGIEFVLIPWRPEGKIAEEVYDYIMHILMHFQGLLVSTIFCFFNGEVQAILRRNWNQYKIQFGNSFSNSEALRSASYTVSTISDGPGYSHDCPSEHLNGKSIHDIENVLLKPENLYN
# T2 sequence (O60894 27-148, chain 2 of 2): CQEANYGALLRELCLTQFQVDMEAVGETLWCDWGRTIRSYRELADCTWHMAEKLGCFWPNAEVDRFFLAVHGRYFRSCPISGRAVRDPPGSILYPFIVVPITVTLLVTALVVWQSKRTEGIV
# Assay: displacement of 125I-human CGRP from SK-N-MC cell membranes
# Excerpt: Dried glass fiber plates were combined with scintillant and counted on a multiwell Perkin Elmer scintillation counter.
row,Binder,IC50
1,"K([γGlu-C16‑Chain])CNTATCALQRLAQELHRLQTYPRTNVGSNTY-NH2 (ends and bridges not checked, Lys 1 is already present in Cmpd 17) [Cmpd 192 ([K^1ε-(γ-Glu(Nα-C16-Chain))]-Cmpd 17)]",4450 pM
2,B1,603 pM
3,B2,1260 pM
